Experimental data published in patent US20230158141A1 (YAFEI SHANGHAI BIOLOG MEDICINE SCIENCE AND TECHNOLOGY, published 2023).
Where two headings read alike, the source gives them in different places.

What was measured:
CTLA-4 [1] = biological target: T1, CTLA-4 (UniProt P16410 36-162, limits assumed); assay: ELISA; S47 on the Cys
T1 construct: also called CTLA-4 protein

CTLA-4 [2] = biological target: T1, CTLA-4; assay: ELISA; R4-1 on the Cys
CTLA-4 [3] = biological target: T1, CTLA-4; assay: ELISA; R4-1 on the Cys; remark: listed apart in the source
PD-1 [4] = biological target: T2, PD-1 (UniProt Q15116 25-167, limits assumed); assay: ELISA, OD mutant/OD WT; B=70-90%
T2 sequence (Q15116 25-167 limits assumed): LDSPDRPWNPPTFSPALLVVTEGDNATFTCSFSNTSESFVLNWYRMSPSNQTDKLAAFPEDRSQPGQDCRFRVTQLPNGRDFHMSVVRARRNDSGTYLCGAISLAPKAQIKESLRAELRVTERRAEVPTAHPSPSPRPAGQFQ

PD-1 [5] = biological target: T2, PD-1; assay: ELISA, conjugate vs WT antibody

T1 sequence (P16410 36-162 limits assumed): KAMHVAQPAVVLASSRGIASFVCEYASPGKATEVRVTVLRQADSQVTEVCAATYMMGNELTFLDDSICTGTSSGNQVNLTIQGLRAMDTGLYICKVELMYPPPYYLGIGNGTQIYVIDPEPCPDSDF

Activity after S47 (40 kD) blocking (CTLA-4 [1]) [%]	Binding activity (CTLA-4 [2]) [%]	Binding activity (CTLA-4 [3]) [%]	binding activity (% of WT) (PD-1 [5]) [%]	Binder	further results
			87.2	anti-PD-1 antibody 2 light chain A25C-R4-5 (antibody, human IgG4 S228P, kappa, V domains shown, R4-5 on Cys 25) VH: QVQLVESGGGVVQPGRSLRLDCKASGITFSNSGMHWVRQAPGKGLEWVAVIWYDGSKRYYADSVKGRFTISRDNSKNTLFLQMNSLRAEDTAVYYCATNDDYWGQGTLVTVSS VL: EIVLTQSPATLSLSPGERATLSCRCSQSVSSYLAWYQQKPGQAPRLLIYDASNRATGIPARFSGSGSGTDFTLTISSLEPEDFAVYYCQQSSNWPRTFGQGTKVEIKR	
			34.4	anti-PD-1 antibody 2 light chain S30C-R4-1 (antibody, human IgG4 S228P, kappa, V domains shown, R4-1 on Cys 30) VH: QVQLVESGGGVVQPGRSLRLDCKASGITFSNSGMHWVRQAPGKGLEWVAVIWYDGSKRYYADSVKGRFTISRDNSKNTLFLQMNSLRAEDTAVYYCATNDDYWGQGTLVTVSS VL: EIVLTQSPATLSLSPGERATLSCRASQSVCSYLAWYQQKPGQAPRLLIYDASNRATGIPARFSGSGSGTDFTLTISSLEPEDFAVYYCQQSSNWPRTFGQGTKVEIKR	
			95.7	anti-PD-1 antibody 2 light chain S31C-R4-1 (antibody, human IgG4 S228P, kappa, V domains shown, R4-1 on Cys 31) VH: QVQLVESGGGVVQPGRSLRLDCKASGITFSNSGMHWVRQAPGKGLEWVAVIWYDGSKRYYADSVKGRFTISRDNSKNTLFLQMNSLRAEDTAVYYCATNDDYWGQGTLVTVSS VL: EIVLTQSPATLSLSPGERATLSCRASQSVSCYLAWYQQKPGQAPRLLIYDASNRATGIPARFSGSGSGTDFTLTISSLEPEDFAVYYCQQSSNWPRTFGQGTKVEIKR	
			83.9	anti-PD-1 antibody 2 light chain A34C-R4-5 (antibody, human IgG4 S228P, kappa, V domains shown, R4-5 on Cys 34) VH: QVQLVESGGGVVQPGRSLRLDCKASGITFSNSGMHWVRQAPGKGLEWVAVIWYDGSKRYYADSVKGRFTISRDNSKNTLFLQMNSLRAEDTAVYYCATNDDYWGQGTLVTVSS VL: EIVLTQSPATLSLSPGERATLSCRASQSVSSYLCWYQQKPGQAPRLLIYDASNRATGIPARFSGSGSGTDFTLTISSLEPEDFAVYYCQQSSNWPRTFGQGTKVEIKR	
			45.5	anti-PD-1 antibody 2 light chain S92C-R4-1 (antibody, human IgG4 S228P, kappa, V domains shown, R4-1 on Cys 92) VH: QVQLVESGGGVVQPGRSLRLDCKASGITFSNSGMHWVRQAPGKGLEWVAVIWYDGSKRYYADSVKGRFTISRDNSKNTLFLQMNSLRAEDTAVYYCATNDDYWGQGTLVTVSS VL: EIVLTQSPATLSLSPGERATLSCRASQSVSSYLAWYQQKPGQAPRLLIYDASNRATGIPARFSGSGSGTDFTLTISSLEPEDFAVYYCQQSCNWPRTFGQGTKVEIKR	
			89.4	anti-PD-1 antibody 2 light chain T56C-R4-5 (antibody, human IgG4 S228P, kappa, V domains shown, R4-5 on Cys 56) VH: QVQLVESGGGVVQPGRSLRLDCKASGITFSNSGMHWVRQAPGKGLEWVAVIWYDGSKRYYADSVKGRFTISRDNSKNTLFLQMNSLRAEDTAVYYCATNDDYWGQGTLVTVSS VL: EIVLTQSPATLSLSPGERATLSCRASQSVSSYLAWYQQKPGQAPRLLIYDASNRACGIPARFSGSGSGTDFTLTISSLEPEDFAVYYCQQSSNWPRTFGQGTKVEIKR	
			25.6	anti-PD-1 antibody 2 light chain Y32C-R4-1 (antibody, human IgG4 S228P, kappa, V domains shown, R4-1 on Cys 32) VH: QVQLVESGGGVVQPGRSLRLDCKASGITFSNSGMHWVRQAPGKGLEWVAVIWYDGSKRYYADSVKGRFTISRDNSKNTLFLQMNSLRAEDTAVYYCATNDDYWGQGTLVTVSS VL: EIVLTQSPATLSLSPGERATLSCRASQSVSSCLAWYQQKPGQAPRLLIYDASNRATGIPARFSGSGSGTDFTLTISSLEPEDFAVYYCQQSSNWPRTFGQGTKVEIKR	

Further lines, the binder ahead of its results:

Binder	Activity after S47 (40 kD) blocking (CTLA-4 [1]) [%]	Binding activity (CTLA-4 [2]) [%]	Binding activity (CTLA-4 [3]) [%]	binding activity (% of WT) (PD-1 [5]) [%]	further results
Ipilimumab L31 Ser to Cys (antibody, V domains shown, chain 2 pos 32 (Kabat L31): introduced Cys carrying the conjugated group of the row (R4-1 or S47), written C) VH: QVQLVESGGGVVQPGRSLRLSCAASGFTFSSYTMHWVRQAPGKGLEWVTFISYDGNNKYYADSVKGRFTISRDNSKNTLYLQMNSLRAEDTAIYYCARTGWLGPFDYWGQGTLVTVSS VL: not shown	12	99	99		
Ipilimumab L34 Ala to Cys (antibody, V domains shown, chain 2 pos 35 (Kabat L34): introduced Cys carrying the conjugated group of the row (R4-1 or S47), written C) VH: QVQLVESGGGVVQPGRSLRLSCAASGFTFSSYTMHWVRQAPGKGLEWVTFISYDGNNKYYADSVKGRFTISRDNSKNTLYLQMNSLRAEDTAIYYCARTGWLGPFDYWGQGTLVTVSS VL: not shown	11	92	92		
Ipilimumab L33 Leu to Cys (antibody, V domains shown, chain 2 pos 34 (Kabat L33): introduced Cys carrying the conjugated group of the row (R4-1 or S47), written C) VH: QVQLVESGGGVVQPGRSLRLSCAASGFTFSSYTMHWVRQAPGKGLEWVTFISYDGNNKYYADSVKGRFTISRDNSKNTLYLQMNSLRAEDTAIYYCARTGWLGPFDYWGQGTLVTVSS VL: not shown	6	95	95		
Ipilimumab L50 Gly to Cys (antibody, V domains shown, chain 2 pos 51 (Kabat L50): introduced Cys carrying the conjugated group of the row (R4-1, R4-3 or S47), written C) VH: QVQLVESGGGVVQPGRSLRLSCAASGFTFSSYTMHWVRQAPGKGLEWVTFISYDGNNKYYADSVKGRFTISRDNSKNTLYLQMNSLRAEDTAIYYCARTGWLGPFDYWGQGTLVTVSS VL: not shown	19	97	97		
Ipilimumab L51 Ala to Cys (antibody, V domains shown, chain 2 pos 52 (Kabat L51): introduced Cys carrying the conjugated group of the row (R4-1 or S47), written C) VH: QVQLVESGGGVVQPGRSLRLSCAASGFTFSSYTMHWVRQAPGKGLEWVTFISYDGNNKYYADSVKGRFTISRDNSKNTLYLQMNSLRAEDTAIYYCARTGWLGPFDYWGQGTLVTVSS VL: not shown	25	92	92		
Ipilimumab L52 Phe to Cys (antibody, V domains shown, chain 2 pos 53 (Kabat L52): introduced Cys carrying the conjugated group of the row (R4-1 or S47), written C) VH: QVQLVESGGGVVQPGRSLRLSCAASGFTFSSYTMHWVRQAPGKGLEWVTFISYDGNNKYYADSVKGRFTISRDNSKNTLYLQMNSLRAEDTAIYYCARTGWLGPFDYWGQGTLVTVSS VL: not shown	16	72	72		
anti-PD-1 antibody 2 heavy chain A61C (antibody, human IgG4 S228P, kappa, V domains shown) VH: QVQLVESGGGVVQPGRSLRLDCKASGITFSNSGMHWVRQAPGKGLEWVAVIWYDGSKRYYCDSVKGRFTISRDNSKNTLFLQMNSLRAEDTAVYYCATNDDYWGQGTLVTVSS VL: EIVLTQSPATLSLSPGERATLSCRASQSVSSYLAWYQQKPGQAPRLLIYDASNRATGIPARFSGSGSGTDFTLTISSLEPEDFAVYYCQQSSNWPRTFGQGTKVEIKR					binding activity (OD after mutation/OD wild type) (PD-1 [4]): 70 to 90%
anti-PD-1 antibody 2 heavy chain D101C (antibody, human IgG4 S228P, kappa, V domains shown) VH: QVQLVESGGGVVQPGRSLRLDCKASGITFSNSGMHWVRQAPGKGLEWVAVIWYDGSKRYYADSVKGRFTISRDNSKNTLFLQMNSLRAEDTAVYYCATNDCYWGQGTLVTVSS VL: EIVLTQSPATLSLSPGERATLSCRASQSVSSYLAWYQQKPGQAPRLLIYDASNRATGIPARFSGSGSGTDFTLTISSLEPEDFAVYYCQQSSNWPRTFGQGTKVEIKR					binding activity (OD after mutation/OD wild type) (PD-1 [4]): 70 to 90%
anti-PD-1 antibody 2 heavy chain I51C (antibody, human IgG4 S228P, kappa, V domains shown) VH: QVQLVESGGGVVQPGRSLRLDCKASGITFSNSGMHWVRQAPGKGLEWVAVCWYDGSKRYYADSVKGRFTISRDNSKNTLFLQMNSLRAEDTAVYYCATNDDYWGQGTLVTVSS VL: EIVLTQSPATLSLSPGERATLSCRASQSVSSYLAWYQQKPGQAPRLLIYDASNRATGIPARFSGSGSGTDFTLTISSLEPEDFAVYYCQQSSNWPRTFGQGTKVEIKR					binding activity (OD after mutation/OD wild type) (PD-1 [4]): 70 to 90%
anti-PD-1 antibody 2 heavy chain D54C (antibody, human IgG4 S228P, kappa, V domains shown) VH: QVQLVESGGGVVQPGRSLRLDCKASGITFSNSGMHWVRQAPGKGLEWVAVIWYCGSKRYYADSVKGRFTISRDNSKNTLFLQMNSLRAEDTAVYYCATNDDYWGQGTLVTVSS VL: EIVLTQSPATLSLSPGERATLSCRASQSVSSYLAWYQQKPGQAPRLLIYDASNRATGIPARFSGSGSGTDFTLTISSLEPEDFAVYYCQQSSNWPRTFGQGTKVEIKR					binding activity (OD after mutation/OD wild type) (PD-1 [4]): 70 to 90%
